Experimental data published in the DeepSol protein solubility set.

Test: soluble on expression in E. coli; label from the status in PepcDB or PDB records

Row | Sequence | soluble on expression in E. coli
1 | MDMEVDEAISGTSSSRLAPIEEVKPTPKQIKRIAAHSHVKGLGIDTETQEAHYEAAGFVGQAPARTAASIVVDMIRLKCMAGRAVLIAGPPATGKTAIALAMSQELGDGVPFVPLVASEVFSNEVKKTEVLMRSFRRAIGLRVKETKDVYEGEVTELSPVEASDNSGMGKTISHLVLSLKTAKGSKQLKLDPSIYDSILKQRVEVGDVIYIEANSGIVKRVGRCDVYASEFDLEADEFVPMPKGDVRKSKDIVQNVSLHDLDIANARPQGRQGDVSNIVSQLMTPKKTEVTDRLRSEINKVVNEYIESGVAELMPGVLFIDEVHMLDVECFTYLYRALESPMAPVVVFATNRGTTTVRGLGDKAPHGIPPEMLDRLMIIPTMKYNEEDIRKILVHRTEAENVQFEEKAFDLLTRLCAQTCGREVIEVEDVDRCTKLFMDRGESLKKAEEEMRQPKNKK | not soluble
2 | MGSDKIHHHHHHMKVQYECLTCMANQCQRIVEMATQDMDIRRRAMILAAKLLAKEYNENAIPAIAGSLIFLELYKFLGNDDPFIEYKLKSEEMARKVADIIKRKLKLDFELAVKLAIIGNVIDFSVGFSPEDLEEEVEKMLKDKLYIDDSKELFEEVKRAENILYITDNVGEHYFDAILIEKIREISNAEVYIAGKEGPIINDATVEDLKRAGLEKLGKVISTGTRIVGVPLKLVSREFMEAFNKADVIIAKGQGNFETLSEINDSRIFFLLKAKCPAVARELKVPKGALVCMRNKFKL | soluble
3 | MLDRFATKQTQEKLKIGVVGVFAIGCLFPLLSDFKRSYPHIDLHISTHNNRVDPAAEGLDYTIRYGGGAWHDTDAQYLCSALMSPLCSPTLASQIQTPADILKFPLLRSYRRDEWALWMQTVGEAPPSPTHNVMVFDSAVTMLEAAQAGMGVAIAPVRMFTHLLSSERIVQPFLTQIDLGSFWITRLQSRPETPAMREFSRWLTGVLHKTSGSHHHHHH | soluble
4 | MRRFTAFVLGLCLSLPVLAEQVQRFGDLDVHYNVFNSSFLQPNVASAVGLVRSKAQGVINVVPMEKGKPVEAAVTGSAKDLTGKVIPLEFRRVSEEGAIYNLAQFPISQRETLVFTIKVEAKGEPAQTFSFNKEIFPDE | not soluble
5 | GMQGKKFISPGAWFSMNYPSDWNEFEDGEGSFLFYNPDVWTGNFRISAFKGNASYGKDAIRQELKENDSASLVKIGTWDCAYSKEMFQEEGTYYTSHLWITGTGNIAFECSFTVPKGGSAKEAEEVIATLEARKEGEKYPAELIPVRLSEIYQINEGYEWVVSTVKQELKKDFQGVEEDLEKIQQVIDSGKISPKKKDEWLAIGITVCAILTNEVEGMEWKTLIDGNREVPVLEYQGRTIDPMKIAWSKVKAGQPCNIAEAYQSAIDHH | soluble
6 | MRLNIAPAPWPGAPVVVLSAGLGGGGGYWLAQRAALEEQYQLVSYDHNGTGENAGPLPAGYSLATMAGELFSALQAAGIARFALVGHALGALIGLQLALDRPEAVSALALVNGWLSLSPHTRRCFQVRERLLHAGGAQAWVEAQPLFLYPAEWMAARLPRLEAEDALAISHFQGKENLLKRLQALKQADFSRRASAIACPTLIISAADDLLVPASCSRVLQTAIPGSQLVEMPWGGHACNVTDADTFNTILRDGLSAMLPVARETR | not soluble
7 | MIKMAQLEDIRKMYFMEGLSIREINRRTGIHRDTISKYISLEEPKPPKYKLTKERTHPVLGPYIPMIKQIIEDDKTRHRKQRHTGTKIFETLKKEGFSGGYNTVMDYLRKEYRKQREAFLPLEFELGAYAEVDWTEAYFYLKGKETKAHLFVMKLRGSGGFYVRAYPFEKQEAFFDGHIKCFEFMNG | not soluble
8 | MGSDKIHHHHHHMNEILKNSPISRAKLSEITGLNKSTISSQVNTLLENKFIFEIGEGQSRGGRRPVMLVFNKNAGYSIGIDVGVDYINGILTDLEGNIVLEKSYNLPIPSSDEVKEILFTIIKYFVSHMPESPYGLIGIGICVPGLVDKQQKIIFMPNSKWEIKDLKAVIETEFNVPVFIENEANAGAYGEKVFGNTKNFSNIIYVSINVGIGIGIIINNELYKGINGFSGEMGHMAIDFNGPKCSCGNRGCWELYASEKALLNSFFKDGKAISCHEIIELAHKNDVEVLNALQNFGFYIGIGLTNILNTFDAEAVILRNHIIESNPIVLNAIKNAVSSRVYSQIEGTYELLPSSLGKNAPALGTTSIVIEHFLNK | not soluble
9 | MNALVAHNSEAWDKKVETGNEWTVAVEQQVIEQAKKGNWDIRVTPMKDVPKDWFPPIKGLKVLCLASGGGQQGPVLAAAGADVTVLDNSEKQLNQDRMIAERDGLTIHTVKGSMDDLSVFNDESFDVIVHPVANVFVENVLPVWKEAYRVLKRNGILISGFVNPVVFLFDTVLEQQGVLKVKHSIPYADPEDLPKHKVKELIENNEALEFGHSLEDQIKGQIDAGFIVTGFYEDKGGFVLDQYIHTYSATRSVKVLEHHHHHH | soluble
10 | IYQMAGLNEDADRNLWLAAFRDPYGKNNLDIASLKKSIAQWAKTQGKTIAPEKVDAVLKDRTGSAVCLTCGKNGKMKMPLKSLAWIQGSSSYSQAEVIEQTEETNSAEISETRTPEVPDVHTPEAQPHLNTQSDGTPTAYTEPAADSSPQVETPDQAASEPVDVLFSIDVIRQGNLRLGN | not soluble
11 | MLNTSDIGKVFPSVTAVVEKGRLRFFAKAIGENNPIYTDEAAAKDAGYESLPMPPTFFFSLKMDVPNPFENYEKVGASLAKILHANQAFVYHQSVVAGDSLTFESHIADIYDKKAGALEFLVEKTKVSNQRGQHVADMTTTLVVRNLEHHHHHH | not soluble
12 | MGSDKIHHHHHHMAMEHVDVLIVGAGLSGIGAAYHLQKHCPGKTYAILEGREAIGGTWDLFRYPGIRSDSDMYTLGYSFKPWKAAKAIADGPSILDYVRETAREHDIDRHIRFQHLVKRASWSSETATWTVEAEHDGKPVTLTCRFLHMCSGYYRYSAGYTPDFAGTERFKGRIVHPQHWPEDLDYSGKKVVVIGSGATAVTLVPEMAKTAAHVTMLQRSPTYVVSRPAEDGIANWLRSKLPAMTAYGITRWKNVLFQLFFFNLARKKPEKVKERLLGMVRDHLGPGYDVETHFTPRYNPWDQRLCLVPDADLFDAIKSGAASVVTDHIETFTETGIQLKSGKTLDADVIVTATGLQLQLLSGMEVVVDGKVADLSQSMSYKGMMFSDVPNLASVFGYTNASWTLKADLTSEYVCRLLNHMDRTGADYCVPRLDGEVEAAPWLDFSSGYITRSIGHFPKQGTRKPWKVHQNYALDLMTLRMGKVEDGVMQFGRKTGATAKAKPEKALEPA | not soluble
13 | MKLERVLPFARSLLQTAVKEGDYAVDATLGNGHDTCFLAEIVGDNGKVFGFDIQKEAIESSTTRLKEKELFERTVLVHDSHDTLLSILPEDAKGKVTGAIFNLGYLPGGDKHIVTKPNSTISAIEQLLEVMAPEGIIVLVIYHGHPEGQVERDAVLKFAEELDQKQAHVLRYGFINQQNNPPFIVAIEKR | not soluble
14 | NKSDAAAKQIKKLEEDFDGRIGVFAIDTGSGNTFGYRSDERFPLCSSFKGFLAAAVLERVQQKKLDINQKVKYESRDLEYHSPITTKYKGSGMTLGDMASAALQYSDNGATNIIMERFLGGPEGMTKFMRSIGDNEFRLDRWELELNTAIPGDKRDTSTPKAVANSLNKLALGNVLNAKVKAIYQNWLKGNTTGDARIRASVPADWVVGDKTGSCGAYGTANDYAVIWPKNRAPLIVSIYTTRKSKDDKHSDKTIAEASRIAIQAID | soluble
15 | SNAMILVPIDISDKEFTERIISHVESEARIDDAEVHFLTVIPSLPYYASLGMAYTAELPGMDELREGSETQLKEIAKKFSIPEDRMHFHVAEGSPKDKILALAKSLPADLVIIASHRPDITTYLLGSNAAAVVRHAECSVLVVR | soluble
16 | MSTEHLTPELLRLADSTPGFMPEDEGTALHEAAMQYLPPGGVGVEIGTYCGRSTIYLGAAAKARAARIVTIDHHHGSEEHQPGWEYHEPAFVDPHTGLLDTVGRFRHTMADSGLEDYVVGVLGRSSTVATFWRTPVHFVFIDGGHTSEAASADLEGWAPWVNVGGALVIHDVFPDPADGGRPPFEIYERALATGQFKETSVTGSLRVLERVGGQTGEPLA | not soluble
17 | MEPGVDGARKQIAEVVAERIERLILDGVLKAGQALPSERRLTEKLGVSRTALREGLRVLWARQIIHTAQGKGSYVAQISQVDAGPLVHLFNSQPRTLYDLLEVRALLESESARLAAIRGTDADFIMIRRRYDEMLAAHGRETDSATHAHLDHAFHLAICQASHNAVLVHTLQSLTDLLLGSVFACVNNLYHREPHKRHIDQQHERLFLAVLAREPEQAHQAARAHVDSVRQSLAEIEQEEQRLVRATLRLEGWV | not soluble
18 | MSLQMKNYQQTLKRMSDRSSGFLGVGVHKQKLGIGAIAIVVTDKDGEIVDCEMMSGVTVFSRFKPLTDFVGMSLNECKVLLQNESVDIALHGALKKIEEQMNRKENVTTEGHHHHHH | not soluble
19 | MAVGKNKGLSKGGKKGGKKKVVDPFSRKDWYDVKAPNMFQTRQIGKTLVNRTQGQRIASDYLKGRVFEVSLADLQKDIDPERSFRKFRLIAEDVQDRNVLCNFHGMDLTTDKYRSMVKKWQTLIEAIVEAKTVDGYLLRVFCIGFTAKDQQSQRKTCYAQQSQVRKIRARMTDIITNEVSGADLKQLVNKLALDSIAKDIEKSCQRIYPLHDVYIRKVKVLKKPRFDVSKLLELHGDGGGKSVEAVVSSEGAVIDRPEGYEPPVQEAVLEHHHHHH | soluble
20 | MSLSGDDFSVPSKNSESTLFDSVEGDGAMMEEGVKSRPRQKKTQACLASKHVQEAPRLEPANEEHNVETAEDSEIRYLSADSGDADDSDADLGSAVKQLQEFIPNIKDRATSTIKRMYRDDLERFKEFKAQGVAIKFGKFSVKENKQLEKNVEDFLALTGIESADKLLYTDRYPEEKSVITNLKRRYSFRLHIGRNIARPWKLIYYRAKKMFDVNNYKGRYSEGDTEKLKMYHSLLGNDWKTIGEMVARSSLSVALKFSQISSQRNRGAWSKSETRKLIKAVEEVILKKMSPQELKEVDSKLQENPESCLSIVREKLYKGISWVEVEAKVQTRNWMQCKSKWTEILTKRMTNGRRIYYGMNALRAKVSLIERLYEINVEDTNEIDWEDLASAIGDVPPSYVQTKFSRLKAVYVPFWQKKTFPEIIDYLYETTLPLLKEKLEKMMEKKGTKIQTPAAPKQVFPFRDIFYYEDDSEGHHHHHH | not soluble
21 | RMASVWQRLGFYASLLKRQLNGGPDVIKWERRVIPGCTRSIYSATGKWTKEYTLQTRKDVEKWWHQRIKEQASKISEADKSKPKFYVLSMFPYPSGKLHMGHVRVYTISDTIARFQKMRGMQVINPMGWDAFGLPAENAAVERNLHPQSWTQSNIKHMRKQLDRLGLCFSWDREITTCLPDYYKWTQYLFIKLYEAGLAYQKEALVNWDPVDQTVLANEQVDEHGCSWRSGAKVEQKYLRQWFIKTTAYAKAMQDALADLPEWYGIKGMQAHWIGDCVGCHLDFTLKVHGQATGEKLTAYTATPEAIYGTSHVAISPSHRLLHGHSSLKEALRMALVPGKDCLTPVMAVNMLTQQEVPVVILAKADLEGSLDSKIGIPSTSSEDTILAQTLGLAYSEVIETLPDGTERLSSSAEFTGMTRQDAFLALTQKARGKRVGGDVTSDKLKDWLISRQRYWGTPIPIVHCPVCGPTPVPLEDLPVTLPNIASFTGKGGPPLAMASEWVNCSCPRCKGAAKRETDTMDTFVDSAWYYFRYTDPHNPHSPFNTAVADYWMPVDLYIGGKEHAVMHLFYARFFSHFCHDQKMVKHREPFHKLLAQGLIKGQTFRLPSGQYLQREEVDLTGSVPVHAKTKEKLEVTWEKMSKSKHNGVDPEEVVEQYGIDTIRLYILFAAPPEKDILWDVKTDALPGVLRWQQRLWTLTTRFIEARASGKSPQPQLLSNKEKAEARKLWEYKNSVISQVTTHFTEDFSLNSAISQLMGLSNALSQASQSVILHSPEFEDALCALMVMAAPLAPHVTSEIWAGLALVPRKLCAHYTWDASVLLQAWPAVDPEFLQQPEVVQMAVLINNKACGKIPVPQQVARDQDKVHEFVLQSELGVRLLQGRSIKKSFLSPRTALINFLVQD | soluble
